Laboratory results: WO2021251460A1 (dated 2021)
One block for each binder: values may come before it.

Tests used:
human Glypican-1 [1] = molecular target: T1, human Glypican-1 (human, UniProt P35052 24-530); assay: FACS on BxPC-3 cells pre-treated with GPC1-ADC (01a033) MMAE, streptavidin-PE detection
T1 construct: Endogenous GPC1 on human cancer cell lines: BxPC-3 in the FACS and internalization assays; TE8, TE14, BxPC3, KP-2 and PK-8 in the ADC assay; also called GPC-1; GPC1
T1 sequence: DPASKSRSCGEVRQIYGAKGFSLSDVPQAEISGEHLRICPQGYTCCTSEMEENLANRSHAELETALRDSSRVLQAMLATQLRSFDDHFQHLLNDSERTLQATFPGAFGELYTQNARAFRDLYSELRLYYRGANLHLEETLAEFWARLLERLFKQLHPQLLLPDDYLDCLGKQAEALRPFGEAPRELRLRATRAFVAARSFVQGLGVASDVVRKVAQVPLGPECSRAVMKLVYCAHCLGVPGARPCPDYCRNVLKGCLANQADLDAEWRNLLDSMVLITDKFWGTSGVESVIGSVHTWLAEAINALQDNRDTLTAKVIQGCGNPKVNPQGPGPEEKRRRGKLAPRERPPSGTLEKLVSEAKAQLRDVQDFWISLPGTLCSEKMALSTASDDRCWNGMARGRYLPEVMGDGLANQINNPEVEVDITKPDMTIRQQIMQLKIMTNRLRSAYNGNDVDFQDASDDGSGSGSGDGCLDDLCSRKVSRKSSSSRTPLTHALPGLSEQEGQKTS

human Glypican-1 [2] = molecular target: T1, human Glypican-1; assay: FACS titration on BxPC-3 cells, FITC anti-mouse IgG secondary

binding result (human Glypican-1 [1]): binds
B1: biotin-labeled anti-GPC1 antibody 02b006 (antibody, mouse IgG2a, kappa, V domains shown)
VH: EVQLVESGGGLVKPGGSRKLSCAASGFTFSDYGMHWVRQAPEKGLEWVAYISSGSSTIYYADTVKGRFTISRDNAKNTLFLQMTSLRSEDTAIYYCVRHSYYNYDIGGYYAMDYWGQGTSVTVSS
VL: DIVLTQSPSSLSASLGERVSLTCRASQEISGYLSWLQQKPDGTIKRLIYAASTLDSGVPKRFSGSRSGSDYSLTISSLESEDFADYYCLQYASYPLTFGAGTKLEIKR
modifications: biotin-labeled (site not given)
notes: Detection antibody for GPC1 left on the cell surface in the internalization assay, read out with streptavidin-PE; also called anti-GPC1 mAb (biotin-labeled 02b006); K090-02b006

binding result (human Glypican-1 [2]): binds
B2: anti-GPC1 monoclonal antibody (clone K090-01a033) (antibody, mouse IgG2a, kappa, V domains shown)
VH: QVQLKQSGPELVKPGASVKISCKASGYSFTGYYMHWVKQSPEKSLEWIGEINPSTGDTTYNQKFKAKATLTVDKSSSTAYMQLKSLTSEDSAVYYCAREKRDDGVFAYWGQGTLVTVSS
VL: DIVMSQSPKSMSMSVGERVALSCKASENVGTYVSWYQQKPEQSPKLLIYGASNRYTGVPDRFTGSGSATDFTLTISSVQAEDLADYYCGQSYSYPLTFGAGTKLELKR
notes: Mouse monoclonal antibody; mouse IgG2a kappa (MOPC173) was used as its isotype control; also called mouse anti-GPC-1 clone 01a033; mouse anti-human Glypican-1 mAb (01a033)

binding result (human Glypican-1 [2]): binds
B3: GPC1-ADC (01a033) MMAE (antibody, mouse IgG2a, kappa, V domains shown)
VH: B2 VH
VL: B2 VL
modifications: MC-vc-PAB-MMAE on reduced interchain cysteine residues; DAR 3.7 per antibody; MC-vc-PAB-MMAE (maleimidocaproyl-valine-citrulline-p-aminobenzyloxycarbonyl-monomethyl auristatin E) on reduced interchain cysteine residues; DAR 3.7 per antibody
notes: also called GPC1-ADC (MMAE); αGPC1-CL-MMAE
